One series has as its target T1, Rrp1;Rad51 (Schizosaccharomyces …, UniProt O13762;P36601 1-897;1-365, |).
T1 sequence 1: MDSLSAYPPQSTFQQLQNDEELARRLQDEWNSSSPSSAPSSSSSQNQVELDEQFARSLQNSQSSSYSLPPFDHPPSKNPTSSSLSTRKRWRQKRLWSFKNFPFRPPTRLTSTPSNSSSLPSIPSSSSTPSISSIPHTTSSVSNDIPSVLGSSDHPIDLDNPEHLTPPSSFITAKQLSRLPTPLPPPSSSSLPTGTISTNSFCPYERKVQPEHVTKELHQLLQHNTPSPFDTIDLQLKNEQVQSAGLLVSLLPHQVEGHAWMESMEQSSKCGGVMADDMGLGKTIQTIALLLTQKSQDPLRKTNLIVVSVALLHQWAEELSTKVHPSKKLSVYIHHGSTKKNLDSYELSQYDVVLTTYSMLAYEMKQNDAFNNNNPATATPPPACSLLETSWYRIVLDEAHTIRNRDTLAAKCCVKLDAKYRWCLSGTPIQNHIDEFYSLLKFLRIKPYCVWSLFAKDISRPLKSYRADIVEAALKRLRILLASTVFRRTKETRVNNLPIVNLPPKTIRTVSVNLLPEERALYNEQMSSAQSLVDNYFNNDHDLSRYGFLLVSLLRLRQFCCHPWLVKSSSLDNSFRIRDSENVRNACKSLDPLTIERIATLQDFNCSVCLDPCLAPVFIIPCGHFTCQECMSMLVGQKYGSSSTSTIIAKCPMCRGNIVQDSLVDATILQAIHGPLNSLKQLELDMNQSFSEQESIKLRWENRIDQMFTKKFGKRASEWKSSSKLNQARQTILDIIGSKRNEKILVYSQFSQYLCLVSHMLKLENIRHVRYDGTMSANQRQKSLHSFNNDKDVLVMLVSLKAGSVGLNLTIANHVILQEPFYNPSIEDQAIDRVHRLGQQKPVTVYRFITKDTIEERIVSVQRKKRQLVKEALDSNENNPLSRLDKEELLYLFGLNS
T1 sequence 2: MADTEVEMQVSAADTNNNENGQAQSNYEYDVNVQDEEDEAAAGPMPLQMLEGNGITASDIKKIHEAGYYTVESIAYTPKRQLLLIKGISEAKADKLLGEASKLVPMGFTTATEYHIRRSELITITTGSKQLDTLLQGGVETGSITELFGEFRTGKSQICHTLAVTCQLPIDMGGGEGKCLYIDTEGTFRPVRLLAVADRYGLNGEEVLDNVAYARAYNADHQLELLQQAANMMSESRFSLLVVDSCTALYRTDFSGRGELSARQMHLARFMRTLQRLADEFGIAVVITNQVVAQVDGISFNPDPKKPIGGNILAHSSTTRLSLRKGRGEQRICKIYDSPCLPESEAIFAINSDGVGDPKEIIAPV
The series can be described thus: fluorescence anisotropy; 2 mM ATP; 3.5 mM Mg2+; scavenger PhiX174 ssDNA; EMSA: 25 mM HEPES pH 7.5, 1 mM DTT, 60 mM KCl, 2 mM ATP, 3.5 mM MgCl2, 5% glycerol, 37 C, 0.2% glutaraldehyde; anisotropy: 30 mM HEPES pH 7.5, 1 mM DTT, 50 mM NaCl, 100 mM KCl, 2 mM ATP, 8 mM PC, 8 U/ml CPK, 3.5 mM MgCl2, 2.5% glycerol, 37 C. Particulars: protein: recombinant;recombinant; tags: 3xFLAG (methods: N-terminal 3xFLAG and C-terminal GST, but construct named GST-Rrp1-FLAG); GST removed by HRV-3C;; single strand.

In a further series the target is T2, Rad51 (Schizosaccharomyces pombe, UniProt P36601 1-365).
T2 sequence: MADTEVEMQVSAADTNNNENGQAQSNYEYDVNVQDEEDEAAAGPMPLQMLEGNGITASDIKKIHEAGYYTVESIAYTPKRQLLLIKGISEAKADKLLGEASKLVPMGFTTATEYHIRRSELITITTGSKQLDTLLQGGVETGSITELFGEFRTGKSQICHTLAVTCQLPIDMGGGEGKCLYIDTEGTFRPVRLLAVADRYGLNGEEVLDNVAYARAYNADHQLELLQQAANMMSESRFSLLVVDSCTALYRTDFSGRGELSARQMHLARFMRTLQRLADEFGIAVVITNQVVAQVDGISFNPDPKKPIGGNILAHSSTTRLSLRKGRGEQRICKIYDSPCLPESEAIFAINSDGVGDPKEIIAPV
In words: fluorescence anisotropy; 2 mM ATP; 3.5 mM Mg2+; 6 uM Rad51; scavenger ssDNA for koff; EMSA: 25 mM HEPES pH 7.5, 1 mM DTT, 60 mM KCl, 2 mM ATP, 3.5 mM MgCl2, 5% glycerol, 37 C, 0.2% glutaraldehyde; anisotropy: 30 mM HEPES pH 7.5, 1 mM DTT, 50 mM NaCl, 100 mM KCl, 2 mM ATP, 8 mM PC, 8 U/ml CPK, 3.5 mM MgCl2, 2.5% glycerol, 37 C. Particulars: protein: recombinant; label: 5'-TAMRA on 16A(-); blunt.

The target in series [1] is T3, Rrp1-FLAG (purified recombinant) (S. pombe, UniProt O13762 1-897).
T3 construct: Rrp1 of Schizosaccharomyces pombe, rrp1+ in pGEX-6P; only the former was removed'; read here as GST-Rrp1-3xFLAG; GST removed with HRV-3C protease; also called purified Rrp1-FLAG; FLAG-tagged Rrp1; source: E. coli Rosetta, from pGEX-6P, purified (GSH sepharose, HiTrap Heparin, Resource Q, HiTrap SP); not shown: GST, N-terminal, cleaved; 3xFLAG, C-terminal, kept
T3 sequence (looked up): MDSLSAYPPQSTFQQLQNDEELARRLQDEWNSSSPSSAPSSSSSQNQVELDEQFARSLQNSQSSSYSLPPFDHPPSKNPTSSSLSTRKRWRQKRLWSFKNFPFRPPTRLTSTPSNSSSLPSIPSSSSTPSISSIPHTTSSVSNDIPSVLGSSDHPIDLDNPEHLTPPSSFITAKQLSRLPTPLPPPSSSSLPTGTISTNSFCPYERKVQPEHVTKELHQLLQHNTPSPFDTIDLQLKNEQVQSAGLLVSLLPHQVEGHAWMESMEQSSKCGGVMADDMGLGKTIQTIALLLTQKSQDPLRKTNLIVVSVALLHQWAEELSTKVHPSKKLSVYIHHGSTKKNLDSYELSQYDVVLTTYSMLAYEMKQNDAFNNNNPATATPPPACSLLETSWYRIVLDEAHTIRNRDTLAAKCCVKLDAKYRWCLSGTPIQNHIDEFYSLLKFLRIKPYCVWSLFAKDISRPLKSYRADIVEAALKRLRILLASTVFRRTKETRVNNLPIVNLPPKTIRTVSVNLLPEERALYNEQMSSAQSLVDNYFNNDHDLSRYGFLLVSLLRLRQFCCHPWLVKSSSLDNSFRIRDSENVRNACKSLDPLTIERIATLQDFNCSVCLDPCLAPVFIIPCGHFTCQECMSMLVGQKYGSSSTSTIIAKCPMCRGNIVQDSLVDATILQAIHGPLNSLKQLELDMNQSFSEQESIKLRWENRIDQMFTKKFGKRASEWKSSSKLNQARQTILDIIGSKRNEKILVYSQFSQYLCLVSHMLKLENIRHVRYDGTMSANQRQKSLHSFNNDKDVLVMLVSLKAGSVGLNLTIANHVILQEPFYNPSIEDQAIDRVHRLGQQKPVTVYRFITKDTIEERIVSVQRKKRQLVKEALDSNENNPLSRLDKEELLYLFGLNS
The series can be described thus: co-IP; purified Rad51 and FLAG-tagged Rrp1 (250 nM each) in IP buffer (35 mM Tris-HCl pH 7.5, 1 mM DTT, 100 mM NaCl, 3.5 mM MgCl2, 0.1% NP-40, 5% glycerol), 30 min at 30°C; precipitated with anti-FLAG M2 affinity gel 2 h at 4°C, eluted with 3xFLAG peptide, western blot. Particulars: both partners purified.

B1: oligo-dT 72-mer (ssDNA)
DNA: TTTTTTTTTTTTTTTTTTTTTTTTTTTTTTTTTTTTTTTTTTTTTTTTTTTTTTTTTTTTTTTTTTTTTTTT
In the case of B1, the binding result in the series with Rrp1;Rad51 is on record as “binds”.

B2: 16A(-)/16A(+) 83-mer dsDNA (dsDNA)
DNA 1: AAATGAACATAAAGTAAATAAGTATAAGGATAATACAAAATAAGTAAATGAATAAACATAGAAAATAAAGTAAAGGATATAAA
DNA 2: TTTATATCCTTTACTTTATTTTCTATGTTTATTCATTTACTTATTTTGTATTATCCTTATACTTATTTACTTTATGTTCATTT
Turning to B2, in the series with Rad51, the binding result was “binds”.

B3: Rad51 (purified) (natural protein, S. pombe, UniProt P36601 1-365, looked up)
chain: MADTEVEMQVSAADTNNNENGQAQSNYEYDVNVQDEEDEAAAGPMPLQMLEGNGITASDIKKIHEAGYYTVESIAYTPKRQLLLIKGISEAKADKLLGEASKLVPMGFTTATEYHIRRSELITITTGSKQLDTLLQGGVETGSITELFGEFRTGKSQICHTLAVTCQLPIDMGGGEGKCLYIDTEGTFRPVRLLAVADRYGLNGEEVLDNVAYARAYNADHQLELLQQAANMMSESRFSLLVVDSCTALYRTDFSGRGELSARQMHLARFMRTLQRLADEFGIAVVITNQVVAQVDGISFNPDPKKPIGGNILAHSSTTRLSLRKGRGEQRICKIYDSPCLPESEAIFAINSDGVGDPKEIIAPV
notes: Rad51 of Schizosaccharomyces pombe; also called purified Rad51
For B3, in series [1], the binding result is “binds”.

The values are drawn from paper PMC8266636, “Rrp1 translocase and ubiquitin ligase activities restrict the genome destabilising effects of Rad51 in fission yeast” (Nucleic Acids Research, 2020).
